In patent publication US10077295B2, “Glycoproteins having lipid mobilizing properties and therapeutic uses thereof” (Aston University, priority 2010, dated 2018):

What was measured:
[1] = tested on: ob/ob mice; test: ob/ob mice administered ZAG i.v. for 5 days (120 h): body weight, temperature, plasma metabolites, tissue weights; format: in vivo, mouse
Experimental: Animals—Mice. Homozygous obese (ob/ob) mice from the colony maintained at Aston University were used in the present study. The origin and characteristics of Aston ob/ob mice have been previously described. Male mice (20-21 weeks old, weight 90-100 g) were grouped into three per cage in an air conditioned room at 22±2° C. with a 12 h-light:12 h-dark cycle and fed a rat and mouse breeding diet (Special Diet Services, Witham, UK) and tap water ad libitum. They were administered ZAG (35 μg) in PBS (100 μl) b.d. by i.v. administration and body weight and food and water intake were monitored daily. Control mice received PBS alone. Body temperature was measured daily by the use of a rectal thermometer (RS Components, Northants, UK). All animal experiments were carried out in accordance with the U.K. Animals (Scientific Procedures) Act 1986.
Serum Metabolite Determinations. Non-esterified fatty acids (NEFA) were determined using a Wako-ASC-ACOD kit (Wako Chemical GmbH, Neuss, Germany). Triglycerides were determined using a Triglyceride kit (Sigma Chemical Co., Poole, United Kingdom) and 3-hydroxybutyrate by a quantitative enzymatic determination kit (Sigma). Glucose was measured using a glucose analyser (Beckman, Irvine, Calif.) and glycerol was determined enzymatically using the method of Wieland as described in “Methods of Enzymatic Analysis” (Ed. Bergmeyer, H. U.) Vol. 3, pp1404-1409, published by Academic Press, London (1974).

[2] = tested on: adipocytes and gastrocnemius muscle of ob/ob mice; test: Glucose uptake into adipocytes and gastrocnemius muscle of ZAG-treated ob/ob mice; format: in vivo, mouse
Experimental: Glucose Uptake into Adipocytyes. Isolated adipocytes (5×10^4) were washed twice in 1 ml Krebs-Ringer bicarbonate buffer, pH 7.2 (KRBS) and further incubated for 10 min at room temperature in 0.5 ml KRBS containing 18.5 MBq 2-[1-^14C] deoxy-D-glucose and non-radioactive 2-deoxy-D-glucose to a final concentration of 0.1 mM. Uptake was terminated by the addition of 1 ml ice-cold glucose-free KRBS, and the cells were washed three times with 1 ml KRBS, lysed by addition of 0.5 ml 1M NaOH and left for at least 1 h at room temperature before the radioactivity was determined by liquid scintillation counting.
Glucose Uptake into Gastrocnemius Muscle—Gastrocnemius muscles were incubated in Krebs-Henseleit bicarbonate buffer for 45 min at 37° C. and then incubated for a further 10 min in 5 ml Krebs-Henseleit buffer containing 185M Bq 2-[1-^14C] deoxy-D-glucose and non-radioactive 2-deoxy-D-glucose to a final concentration of 0.1 mM. The muscles were then removed and washed in 0.9% NaCl for 5 min followed by dissolution in 0.5 ml 1M NaOH and the radioactivity was determined by liquid scintillation counting.

[3] = tested on: ob/ob mice; test: ob/ob mice treated with ZAG i.v. with or without propanolol; format: in vivo, mouse; details: ZAG alone
Experimental: Animals. […] Male mice (about 20 weeks of age) were grouped into three per cage and kept in an air conditioned room at 22±2° C., with ad libitum feeding of a rat and mouse breeding diet (Special Diet Services, Witham, UK) and tap water. Mice were administered ZAG (50 μg, i.v. in 100 μl PBS) or PBS daily with or without propanolol (40 mgkg^−1, po, daily) and body weight and food and water intake were determined, as well as urinary glucose excretion and body temperature, determined by the use of a rectal thermometer (RS Components, Northants, UK). A glucose tolerance test was performed on day 3. […] Blood samples were removed from the tail vein at 15, 30, 60 and 120 min after glucose administration and used for the measurements of glucose and insulin. At the end of the experiment the animals were terminated by cervical dislocation, tissues removed and rapidly frozen in liquid nitrogen, and maintained at −80° C.
To determine whether ZAG can increase insulin signalling the effect on Glut4 expression was determined.

[4] = tested on: ob/ob mice; test: Body weight loss by route of administration of ZAG in ob/ob mice; format: in vivo, mouse; details: intraveneous, 50 ug/day
[5] = target: β3-AR (Homo sapiens, UniProt P13945); test: [125I] ZAG binding to crude membranes of CHO-K1 β3 cells; parameters: host or cells: CHO-K1
β3-AR, sequence (P13945 whole entry): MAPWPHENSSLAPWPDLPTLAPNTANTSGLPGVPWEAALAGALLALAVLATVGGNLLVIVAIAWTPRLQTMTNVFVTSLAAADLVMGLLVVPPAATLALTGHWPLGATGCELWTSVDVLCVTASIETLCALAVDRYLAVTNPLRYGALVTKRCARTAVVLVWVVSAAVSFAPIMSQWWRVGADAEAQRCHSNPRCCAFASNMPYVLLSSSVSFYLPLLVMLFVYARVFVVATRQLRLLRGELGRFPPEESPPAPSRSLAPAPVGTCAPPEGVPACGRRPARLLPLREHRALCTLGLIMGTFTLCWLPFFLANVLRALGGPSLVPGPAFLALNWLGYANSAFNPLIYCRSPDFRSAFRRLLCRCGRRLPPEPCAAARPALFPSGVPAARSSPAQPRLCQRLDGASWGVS
Experimental: [^125I] labelling of ZAG. One iodo bead that had been washed and dried was incubated with Na [^125I] (1 mCi per 100 μg protein) for 5 min in PBS, then ZAG (100 μg protein) was added and left for a further 15 min. The reaction was terminated by removal of the iodo bead, while free Na [^125I] was removed using a Sephadex G25 column eluted with 0.1MNaI. The [^125I] ZAG was concentrated against PBS using a Microcon microconcentrator with a filter cut-off of Mr 10,000. The specific activity of the [^125I] ZAG was 8 Cimg protein^1.
For binding studies cells were sonicated in 2 mM Tris HCl, pH7.5, containing […] and crude total membranes were pelleted by centrifugation (13,000 g; 15 min) at 4° C. Binding studies were carried out at 37° C. by incubating membranes (500 μg protein) in 0.4 ml 50 mM Tris HCl, pH 7.5, containing 0.5 mM MgCl2 for 60 min with various concentrations of [^125I] ZAG (3,000 to 15,000 cpm) in the absence or presence of 100 μM non-labelled ZAG. The membranes were then precipitated by centrifugation at 13000 g for 20 min, the supernatant was removed and the [^125I] bound to the pellet was quantitated using a Packard Corbra Model 5005 Auto-gamma counter. Binding was analysed using non-linear regression analysis (GraphPad Prism, Version 5.04). Specific binding was regarded as the amount of labelled ZAG displaced by non-radioactive ZAG.

B1: ZAG: recombinant full length human zinc-α2-glycoprotein (SEQ ID NO: 1) secreted by transfected HEK293F cells; lipid mobilizing factor (protein, listed as Homo sapiens)
chain: QENQDGRYSLTYIYTGLSKHVEDVPAFQALGSLNDLQFFRYNSKDRKSQPMGLWRQVEGMEDWKEDSQLQKAREDMETLKDIVEYYNDSNGSHVLQGRFGCEIENNRSSGAFWKYYYDGKDYIEFNKEIPAWVPFDPAAQITKQKWEAEPVYVQRAKAYLEEECPATLRKYLKYSKNILDRQDPPSVVVTSHQAPGEKKKLKCLAYDFYPGKIDVHWTRAGQVQEPELRGDVLHNGNGTYQSWVVVAVPPQDTAPYSCHVQHSSLAQPLVVPWEAS
oxygen uptake by BAT ([1]; ob/ob mice after ZAG administration): three-fold increase | BAT weight ([1]; ob/ob mice treated for 120 h): 0.73 ± 0.12 p < 0.01 g | Gastrocnemius weight ([1]; ob/ob mice treated for 120 h): 1.12 ± 0.14 p < 0.01 g | Glucose (plasma) ([1]; ob/ob mice treated for 120 h): 20.3 ± 0.8 p < 0.01 mmol/L | Glycerol (plasma) ([1]; ob/ob mice treated for 120 h): 429 + 36 p < 0.001 μmol/L | Insulin (plasma) ([1]; ob/ob mice treated for 120 h): 26.3 ± 0.52 p < 0.001 ng/mL | Insulin Pancreas ([1]; ob/ob mice treated for 120 h): 16.3 ± 3.1 p = 0.0042 pg/g pancerase | NEFA (plasma) ([1]; ob/ob mice treated for 120 h): 0.23 ± 0.05 p < 0.001 mEq/L | Soleus weight ([1]; ob/ob mice treated for 120 h): 0.80 ± 0.09 p < 0.01 g | TG (plasma) ([1]; ob/ob mice treated for 120 h): 0.9 ± 0.1 p < 0.05 mmol/L | adverse effects after administration ([1]; ob/ob mice, 35 μg i.v.): No adverse effects were observed | decrease in plasma insulin levels ([1]; ob/ob mice, 5 days): 36% | blood glucose ([1]; ob/ob mice, Day 5 (value before the further drop)): 2.03 mM | rise of body temperature ([1]; ob/ob mice, after 4 days of ZAG): 0.4 °C | weight difference between ZAG and PBS groups ([1]; ob/ob mice, after 5 days): 3.5 g | glucose uptake into gastrocnemius muscle ([2]; absence and presence of insulin (100 nM)): significantly enhanced | glucose uptake into epididymal, visceral and subcutaneous adipocytes ([2]; absence of insulin, ob/ob mice treated 5 days): increased glucose uptake | effect on liver lipids [3]: no effect on liver lipids | % of i.v. loss over the same time ([4]; 8 Days): 100% | % of i.v. loss over the same time ([4]; 20 Days): 100% | Body weight loss ([4]; 70 g ob/ob mice, 8 Days): −6.0% | Bmax at β3-AR relative to β2-AR [5]: about three times | Kd at β3-AR, fold lower than that of CGP12177 [5]: about 100 fold | effect of freeze-thawing on binding to β3-AR ([5]; single freeze/thaw cycle): eliminated binding
